Experimental data taken from publication PMC9580340.

Molecular target: soluble dimeric human ACE2, Fc-tagged, biotinylated (ACRO Biosystems AC2-H82F9) (human) (UniProt Q9BYF1)
Assay: SPR

Substance | Kd
SARS-CoV-2 B.1.1.529 S2P spike trimer (binding studies) (domain or fragment) | 0.59 to 3.8 nM
SARS-CoV-2 D614G S2P spike trimer (binding studies) (domain or fragment) | 0.73 nM
SARS-CoV-2 WA-1 S2P spike trimer (binding studies) (domain or fragment) | 1.1 nM
